Data from the nanobody polyreactivity screen of Harvey et al. (2022).

Test: yeast display, Sf9 membrane polyspecificity reagent, FACS + sequencing; frameworks hold sequencing errors
Method in brief: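 Synthetic nanobody libraries on Saccharomyces cerevisiae BJ5465 were galactose-induced for 36–48 hours, stained 1 hour at 4 °C with 10% biotinylated, detergent-solubilized Sf9 membrane reagent and enriched on streptavidin microbeads. FACS then separated cells into low and high (top ~1%) gates by anti-HA (expression) and streptavidin (reagent binding) fluorescence. Genes were colony-PCR amplified, MiSeq 2 × 250 sequenced and CDR-length filtered. A clone's polyreactivity label is that of its gate of origin.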

Row | Sequence | polyreactivity (PSR sort gate)
1 | QVQLVESGGGLVQAGGSLRLTCAASGRIFIYNTMGWYRQAPGTERELVATISSGGRTYYADSVKGRFTISRDNAKNTVYFQMNSLKPEDTAVYYCNARRRYYSVWRGWDNELDYWGQGTQVTVSS | high polyreactivity
2 | QVQLVESGGGLVQAGGSLRLSCAASGRIFNLYAMGWYRQAPGKERELVAGISWSGGDTTYADSVKGRFTISRDNAKNTVYLQMNSLKPEDTAVYYCNKRAYLDYGGRGYNYWGQGTRVTVSS | low polyreactivity
3 | QVQLVESGGGLVQAGGSLRLSCAASGRTFKIYTMGWYRPAPGKERELVAAISRGGSTYYADSVKGRFTISRDNAKNTVYLQMNSLKPEDTAVYYCAVDLYYLSSASTRQVRRDYWGQGTQVTVSS | high polyreactivity
4 | QVQLVESGGRLVQAGGSLRLSCAASGSTFTVYAMGWYRQAPGKESELVAVITGSGGSTYYADSVKGRFTISRDNAKNTVYLQINSLKPEDTAVYYCAKEPGENWTVSWRDFDYWGQGTQVTVSS | low polyreactivity
5 | QVHLVESGGGLVQAGGSLRLSCAASGSTFQRYAMGWDRQAPGKERELDAAITIRGTRTYYADSVKGRFTISRDNAKNTVYLQMNSLKPEDTAVYYCAATYYWYGHPSRRYDYWGQGTQVTVSS | high polyreactivity
6 | QVQLVESGGGLVQAGGSLRLSCAASGSTFGGNAMGWYRQAPGKERELVAAIDSGGGTNYADSVKGRFTISRDNAKNTVYLQMNSLKPEDTAVYYCNADWAVRSTQNSSSGHVYWGQGTQVTVSS | low polyreactivity
7 | QLQLVESGGGLVQAGGSLSLSCAASGSIFNSKRMGWYRPAPGKERELVAAITGGGSTNYADSVKGRFTISRDNAKNTVYLQMNSLKPEDTAVYYCAADYPPTFYYWYEEYEYWGQGTQVTVSS | low polyreactivity
8 | QVQLVESGGGLVQAGGSLRLSCAASGRIFYLYTMGWYRQAPGKEREFSTYYADSVKGRFTISRDNAKNTVYLQMNCLKPEDTAVYYCAAADHPPVWYGYWGQGTQVTVSS | low polyreactivity
9 | QVQHVESGGGLVQAGGSLRLSCAASGSIFRYNARGWYRQAPGKERELVAAISSSGGRTYYADSVKGRFTISRDNAKNTVYLQMNSLKPEDTAVYYCATADTRRFTYGYYYWGQGTQVTVSS | high polyreactivity
10 | QVQLVESGGGLVQAGGSLRLTCAASGRIFSNDKGWYRQAPGKERELVAAITWSGGTTHYADSVKGRFTISRDNAKNTVYLQMNSLKPEDTAVYYCARAGGHAYSYWGQGTQVTVSS | low polyreactivity
11 | QVQLVESGGGLVQAGGSHRLICAASGSTFNFNVMGWYRQEPGKERELDAAISSSGGNTYYADSVKGRFTISRDNAKNTVYLQMNSLKPEDTAVYYCADEYEEWYSVFLYDYWGQGTQVTVSS | high polyreactivity
12 | QVHLVESGGGLVQAGGSLRLSCAASGYIFGGYAMGWSRQAPGKEREFVAAISDISGSTYYADSVKGRFTISRDNAKNTVYLQMNSLKPEDTAVYYGGHTSTADEDYWGQGTQVTVSS | low polyreactivity
13 | QVQLVESGGGLVQAGGSLRLSCAASGSTFYVYAMGWYRQAPGKERELVAAINFNGGGTYYADSVKGRFTISRDNAMNTVYLQMNSLKPEDTAFYYCNAEDDYTYDRSFGGYKYDYWGQGTQVTVSS | low polyreactivity
14 | QVQLVESGGGLVQAGGSLRLSCAASGLIFSYYVMGWYRQAHGKERELVAAISRRGGSTYYADSVKGRFTISRDNAKNTVYLQMNSLKPEDTAVYYCNAQRNFKSITEYDYWGQGTQVTVSS | high polyreactivity
15 | QVQLVESGGGLVQAGGSLRLSCAASGSTYAFYAMGWYRQAPGKERELVAAITSGGSTKYADSVKGRFTISRDNAKNTVYLQMNSLKPEDTAFYYCAARSRWSKLFRYDYWGQGTQVTVSS | high polyreactivity
16 | QVHLVESGGGLVQAGGSLRLSCAASGRIFDYNTMGWYRQAPGKERELVAAITGGTGSTYYADSVKGRFTISRDNAKNTVYLQMNSLKPEDTAVYYCAAGFHKRVTPEILYDYWGQGTQLTVSS | low polyreactivity
17 | QVQRVESGGGLVQAGRSLRLSCAASGTIFGPYAMGWYRQAPGKERELVAAITIGRDNTYYADSVKGRFTISRDNAKNTVYLQINSLKPEDTAVYYCAAKYYGGKPHYYEYYYWGQGTQVTVSS | low polyreactivity
18 | QVQLVESGGGLVQAGGSLRLSCAASGSIFYYYDMGWYRQAPGKERELVAAIRGSGGSTYYADSVKGRFTISRDNAKNTVYLQMNSLKPEDTAVYYCAAEFGDQRFYRQYVRRDHWGQGTQVTVSS | low polyreactivity
19 | QVQLVESGGGLVQAGGSLRLSCAASGSTFSSLIMGWYRQAPGKERELVAAISRSGGRTYYADSVKGRFTISRDNAKNTVYLQMNSLIPEDTAVYYCAADYVSVDRIRYGYCGQGTQVTVSS | high polyreactivity
20 | QDQLVETGGGLVQAGGSLRLSCSASGSIFAAYTMGWYRQAPGKECELVATISSGGSTYYADSVKGRFTISRDNAKNTVYLQMNSLKPEDTAVYYCAAVAYTYTEYEYWGQGTQVTVSS | low polyreactivity
21 | QVQLVESGGGLVQAGGRLRLSCAASGRTFGQNAMGWYRQAPGKERELVAVISSRGGSTYYADSVKGRFTISRDNAKNTVYLQMNSLKPEDTAVYYCAKARRKPGAVDYWGQGTQVTVSS | high polyreactivity
22 | QVQLVESGGGLVQAAGSLRLSSAPSGRIFYKNARGWYRQAPGKETELVAAISWRGTSTYYADSVKGRFTISRDNAKNTVYLQMNILKPEDTAVYYCNTLYYSQREIYYWGYDSWGKGTQVTVSS | high polyreactivity

Row | Sequence | polyreactivity (PSR sort gate)
23 | QVKLVESGGGLVQAGGSLRLSCADSGSIFYNNAMGWYRQAPGKERELVATIRRSGGSTYYADSVKGRFTISRDNAKNTVYLQMISLKPEDTAVDYCNAPPYLALVLIDYDYWGQGTQVTVSS | low polyreactivity
24 | QVQLVESGGVLVQAGGSLRLSCAASGSLFILYALGWYRQEPGKEREFVASISRSGSTYYADSVKGRFTISRDNAKNSVYLQMNSLKPEDTAVYYCAADYRQFYRYVDYEYWGQGTQVTVSS | low polyreactivity
25 | QVQLVESGGGLVQAGGRLRLSCAASGSIFSYYAMGWYRQAPGKERELVAAITANGGSTYYADSVKGRFTISRDNAKNTVYLQMNSLKPADTAVYYCAADYYWGYDCGQGTQVTVSS | low polyreactivity
26 | QVQLVESGGGLVQAGGSLRLSCAASGGIFTLYVMGWYRQAPGKERELVAAISRTGGSTYYADSVKGRFTISRDNAKNTVYLQMNSLKPEDTAVYFCAALYRGGTRYGGYDYWGQGTQVTVSS | high polyreactivity
27 | QVQLVESGGGLVQAGGSLRLSCAASGSNFLYSAMGWYRQAPGKERELVAVISWSGVSTYYADSVKGRFTISRDNAKNTVYLQMNSLKPEDTAVYYCNTGNHYIRTYGYWGQGTQVTVSS | low polyreactivity
28 | QVQLEESGGGLVQAGGSLRLSCAASGITFAHYAMGWSRQAPGKDRELVAAISQSGGSTYYADSVKGRFTISRDNAKNTVYLQMNSLKPEDTAVYYCNKYRYPQDDYWGQGTQVTVSS | high polyreactivity
29 | QVQLVESGRGLVQAGGSLRLSCAASGRIFYYNDMGWYRQAPGNERELFAAITWTDDGTYYADSVKGRFTISRDNAKNTVYLQMNSLKPVDTAVYYCAKDYNRTVEDWAKVNGFDFWGQVTQVTVSS | low polyreactivity
30 | QVQLVESGGGLVQAGGSLRLSCAASGIFLGYAMGWYRQAPGKERELVAAITSGDSTYYADSVKGRLTISRDNAKNTVYLQMNSLKPEDTAVYYCAKTRYSWPRVWYNYWGQGTQVTVSS | low polyreactivity
31 | QVQLEESGGGLVQAGGSLRLSCAASGSTFRYYVMGWYRPAPGKERYLVAAITSSGSTNYADSVKGRFTISRDNAKNTVYLQMNSLKPEDTAVYYCAAVYRDRSQKKRIFYYWGQGTQVTVSS | high polyreactivity
32 | KVQLVESGVGLVQAGGSLRLSCAPSGSIFKYYAMGWYRQAPGKERELVAAITDRGSSTYYADSVKGRFTISRDNAKTTVYLQMNSLKPEDTAVYYCAAETYVCIYWPYVKYYYWGQGTQVNVSS | high polyreactivity
33 | QVQLVESGGGLVQAGGSLRLSCAASGFIFGAYAMGWYRQAPGKERELVAAITKSGGRTYYADSVKGRFTISRDNAKNTVYLQMNSLKPEDTAVYFCAAVTRYPREYDYWGQGTQVTVSS | high polyreactivity
34 | QVQLVESGGGLVQAGGSLRLSCAASGSIFRIYAMGWYRQSPGKERELVAAISFSTGSRTYYADSVKGRFTISRDNAKNTVYLQMNSLKPEDTAVYYCNAESYYDYNYWGQGTQVTVSS | low polyreactivity
35 | QVQLVESGGGLVQAGGSLRLSCAASGLTFYYNAMGWYRQAPGKERELVAAISRSGGSTYYADSVKGRFTISRDNAKNTVYLQMNSLKPEDTAVYYCAVGYVYTRKGRVQPVKYDYWGQGTQVTVSS | high polyreactivity
36 | QVQLVESGGGLVQAGGSLRLSCAASGTTFYYYAMGWYRQAPGKEREFVAAIRFSGSRTYYADSVKGRFPISRDNAKNTVYLQMNSLIPEDTAVYYCARATLPSVSYYRKLFDYWGQGTHVTVSS | high polyreactivity
37 | QVQLVESGGGLVQAGGSLRLTCAASGFIFSKNAMGWYRQPPGKERELVAAIDTSGSSTYYAYSVKGRFTISRDNAKNSVYLQMISLKPEDTAVYYCNRDDYFFSRFDYWGQGTQVTVTS | low polyreactivity
38 | QVQLVESGGGLVQAGGSLRLSCAASGRTFRSYAMGWYRQAPGKERELVAAISYGGGRTFYADSVKGRFTISRDNAKNTVYLQMNSLKPEDTAVYYCNAAFPRSYRFDYWGQGTKVTVSS | high polyreactivity
39 | QVQHVESGGGLVQAGGSLRLSCAASGIIFSEYAMGWYRLAPGKERELVAVISRSGGRTYYADSVKGRFTISRDNAKNTVYFQMNSLKPEDTAVYYCAVVHKTFTGDYWGQGTQVTVSS | high polyreactivity
40 | QVQLVESGGGLVQAGGSLRLICAASGRTIDHYAMGWYRQAPGKERELVAAISTTGGSTYYADSVKGRFTISRDNAKNTVYLQMNSLKPEDTAVYYCAARGLRTGGYWGQGTQVTVSS | high polyreactivity
41 | QVQLVESGGGLVKAGGSLRLSCAASGSIFPFYAMGSYRQAPGKERELVATISWSGGRTYYADSVKGRFTISRDNAKNTVYLQMNSLKPEDTAVYYCAAGSYHYPNAYYYWGQGTQVTVSS | high polyreactivity
42 | QVQLQESGVRLVQAGGSLRLSCAASGPISRRSTMGWYRQAPGKERELVTAITRGTNTNYADSVKGRFTISRDNAKNTEYLQMNSLKPEDTAVYYCAAYGVLKPSRGDAVFHRYWGQGTQVTVSS | low polyreactivity
43 | QVQLVESGGGLVQAGRSLRLSCAASGLIFVNYAMGWYRPAPGHERELVAASTRSGGRTYYADSVKGRFTISRDNAKNRRYLHMNSLKPVDTAVYYCAAYVRSATLRVNYGYWGQGTQVTVSS | high polyreactivity
